1 substance from US20100047228 can be followed below.

This data set relates to delta-plasminogen.
Sequence of delta-plasminogen (chain, as listed by the source mutant): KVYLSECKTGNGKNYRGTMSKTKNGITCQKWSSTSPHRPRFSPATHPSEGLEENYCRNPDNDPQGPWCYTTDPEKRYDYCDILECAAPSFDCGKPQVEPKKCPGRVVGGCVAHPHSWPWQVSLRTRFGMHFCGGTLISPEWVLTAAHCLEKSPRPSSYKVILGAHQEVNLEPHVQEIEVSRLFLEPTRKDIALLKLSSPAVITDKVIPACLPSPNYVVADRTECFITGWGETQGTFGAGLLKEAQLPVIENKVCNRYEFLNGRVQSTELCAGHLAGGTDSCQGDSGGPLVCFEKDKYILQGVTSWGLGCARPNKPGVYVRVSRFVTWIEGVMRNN

As for urokinase, the “conversion of one-chain delta-plasminogen into two-chain delta-plasmin (reduced SDS-PAGE)” value is reported as “delta-plasminogen indeed can be activated by all three plasminogen activators”.
